Five molecules from patent publication US20200317768A1 (published 2020) can be followed below.

Experiment [1] addresses T1, human FcγRIIaH extracellular domain with C-terminal His-tag (human, UniProt P12318 34-217).
T1 construct: Expressed in FreeStyle 293 cells and purified; also called human FcγRIIa (type H); FcgRIIaH; not shown: C-terminal His-tag
T1 sequence: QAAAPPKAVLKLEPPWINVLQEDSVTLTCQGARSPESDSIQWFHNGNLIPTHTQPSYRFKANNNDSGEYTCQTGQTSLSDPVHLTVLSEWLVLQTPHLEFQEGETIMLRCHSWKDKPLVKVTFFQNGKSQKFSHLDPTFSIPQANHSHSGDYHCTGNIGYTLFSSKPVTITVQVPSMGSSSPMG
In words: SPR (Biacore), antibody captured on chip, FcgR extracellular domain as analyte, 25 C.

For experiment [2], the target named is T2, human FcγRIIb extracellular domain with C-terminal His-tag (human, UniProt P31994 43-217).
T2 construct: Expressed in FreeStyle 293 cells and purified; also called humanFcgRIIb; not shown: C-terminal His-tag
T2 sequence: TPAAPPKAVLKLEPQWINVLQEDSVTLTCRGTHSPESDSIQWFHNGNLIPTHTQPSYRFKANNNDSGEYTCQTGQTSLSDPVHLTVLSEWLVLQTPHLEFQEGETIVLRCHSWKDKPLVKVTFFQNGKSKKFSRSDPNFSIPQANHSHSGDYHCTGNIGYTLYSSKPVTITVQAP
The description is as above.

Experiment [3] addresses T3, human FcγRIIaR extracellular domain with C-terminal His-tag (human, UniProt P12318 34-217).
T3 construct: Expressed in FreeStyle 293 cells and purified; also called human FcγRIIa (type R); FcgRIIaR; not shown: C-terminal His-tag
T3 chain: T1 sequence with H134R
Described as above.

Experiment [4] has as its target T4, cynomolgus monkey FcγRIIa2 extracellular domain with C-terminal His-tag (cynomolgus monkey).
T4 construct: Expressed in FreeStyle 293 cells and purified; also called cyno FcγRIIa2; cynoFcgRIIa2; not shown: C-terminal His-tag
T4 chain: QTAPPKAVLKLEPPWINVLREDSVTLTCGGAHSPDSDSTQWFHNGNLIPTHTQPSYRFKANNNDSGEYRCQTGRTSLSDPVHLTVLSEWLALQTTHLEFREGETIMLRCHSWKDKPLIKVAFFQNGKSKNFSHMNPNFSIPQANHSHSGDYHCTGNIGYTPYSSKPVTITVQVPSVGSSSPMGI
Described as above.

The target in experiment [5] is T5, cynomolgus monkey FcγRIIa3 extracellular domain with C-terminal His-tag (cynomolgus monkey).
T5 construct: Expressed in FreeStyle 293 cells and purified; also called cyno FcγRIIa3; cynoFcgRIIa3; not shown: C-terminal His-tag
T5 chain: T4 chain with K127I, N130K, H133P, Q142R
The experiment is described as above.

Experiment [6] concerns the target T6, human FcγRIIIaV extracellular domain with C-terminal His-tag (human, UniProt P08637 17-208).
T6 construct: Expressed in FreeStyle 293 cells and purified; also called FcgRIIIaV; not shown: C-terminal His-tag
Described as above.

Experiment [7] deals with T7, cynomolgus monkey FcγRIIb extracellular domain with C-terminal His-tag (cynomolgus monkey).
T7 construct: Expressed in FreeStyle 293 cells and purified; also called cyno FcγRIIb; cynoFcγRIIb; not shown: C-terminal His-tag
T7 chain: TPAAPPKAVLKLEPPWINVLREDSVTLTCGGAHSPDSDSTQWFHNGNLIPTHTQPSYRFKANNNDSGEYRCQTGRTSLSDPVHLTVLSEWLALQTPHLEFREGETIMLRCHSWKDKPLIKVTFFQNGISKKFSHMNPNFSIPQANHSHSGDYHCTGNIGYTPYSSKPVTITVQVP
The experiment is described as above.

For experiment [8], the target named is T8, cynomolgus monkey FcγRIIa1 extracellular domain with C-terminal His-tag (cynomolgus monkey).
T8 construct: Expressed in FreeStyle 293 cells and purified; also called cyno FcγRIIa1; cynoFcgRIIa1; not shown: C-terminal His-tag
T8 chain: T4 chain with T95P, A121T, K127I, S128A, N130K, N135D, Q142R
Described as above.

In experiment [9] the target is T7, cynomolgus monkey FcγRIIb extracellular …. In words: SPR (Biacore); KD of SG1 divided by KD of the variant for this FcgR.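 Also: relative to parent M103205H795-SG1 carrying the SG1 human heavy chain constant region.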 In general terms: SPR reads the build-up and loss of mass on a sensor chip optically.

Changes are numbered by the printed parent chain.

Broadly, the Kd is the free concentration of one partner at which half of the binding sites on the other are occupied at equilibrium, for simple one-to-one binding.

T6 sequence (P08637 17-208 F176V): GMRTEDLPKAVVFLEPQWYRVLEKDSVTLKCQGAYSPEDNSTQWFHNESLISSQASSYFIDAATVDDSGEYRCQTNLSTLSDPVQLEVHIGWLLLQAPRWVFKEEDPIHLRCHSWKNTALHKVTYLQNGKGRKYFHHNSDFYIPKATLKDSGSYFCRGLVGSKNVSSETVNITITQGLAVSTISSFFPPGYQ

B1: M103205H795-MY180 / M103202L889-SK1 (antibody, human IgG1, kappa)
heavy: QVTLKESGPVLVKPTETLTLTCTVSGIDLSHDDISWVRQAPGKGLEWVGIISYAGSTYYASWAKGRLTISKDTSKNQVVLTMTNMDPVDTATYYCARGVPAYSHGGDLWGQGTLVTVSSASTKGPSVFPLAPSSKSTSGGTAALGCLVKDYFPEPVTVSWNSGALTSGVHTFPAVLQSSGLYSLSSVVTVPSSSLGTQTYICNVNHKPSNTKVDKKVEPKSCDKTHTCPPCPAPELLNGPSVFLFPPKPKDTLMISRTPEVTCVVVDVSEEDPEVKFNWYVDGVEVHNAKTKPREEQYNSTYRVVSVLTVLHQDWLNGKEYKCKVSNKALPAPIEKTISKAKGQPREPQVYTLPPSREEMTKNQVSLTCLVKGFYPSDIAVEWESNGQPENNYKTTPSVLDSDGSFFLYSKLTVDKSRWQQGNVFSCSVMHEALHNHYTQKSLSLSP
light: DIVMTQSPATLSLSPGERATLSCTSSQSVYHANWLSWFQQKPGQPPKLLIYWASTLAYGVPSRFSGSGSGTDFTLTISSLQPEDAATYYCAGGYGGGRYAFGQGTKVEIKRTVAAPSVFIFPPSDEQLKSGTASVVCLLNNFYPREAKVQWKVDNALQSGNSQESVTEQDSKDSTYSLSSTLTLSKADYEKHKVYACEVTHQGLSSPVTKSFNRGEC
notes: Position 396 variant derived from MY052, expressed with M103202L889-SK1 as light chain
Consider B1, for which the Kd in experiment [1] stood at 1.7 µM; in [2], 19 µM; in [3] it was 3 µM; in experiment [4] it was 2.7 µM; in [5], 12 µM; in experiment [6] it was 5.9 µM. The dissociation constant (Kd) in experiment [7] is 1.3 µM; in experiment [8], 2.6 µM. The “KD fold (SG1 = 1)” value in experiment [9] stood at 1.4 fold.

B2: M103205H795-MY183 / M103202L889-SK1 (antibody, human IgG1, kappa)
heavy: B1 heavy with S398W
light: B1 light
notes: as for B1
With B2, the Kd turned out to be 1.2 µM in [1]; 1.1 µM in experiment [2]; 2.1 µM in experiment [3]; 2 µM in experiment [4]; 8.4 µM in [5]; 7.2 µM in experiment [6]. Besides, the equilibrium dissociation constant (Kd) in experiment [7] stood at 0.97 µM; in [8], 2.1 µM. In [9], the “KD fold (SG1 = 1)” value is 1.9 fold.

B3: M103205H795-MY182 / M103202L889-SK1 (antibody, human IgG1, kappa)
heavy: B1 heavy with S398V
light: B1 light
notes: as for B1
B3: the Kd in experiment [1] is 1.3 µM; in experiment [2], 1.2 µM; in [3] it was 2.1 µM; in experiment [4], 2.2 µM; in [5] it was 7.8 µM; in [6], 7 µM. Further, the Kd was 0.96 µM in experiment [7] and 2.1 µM in experiment [8]. In addition, in experiment [9], the “KD fold (SG1 = 1)” value came to 1.9 fold.

B4: M103205H795-MY181 / M103202L889-SK1 (antibody, human IgG1, kappa)
heavy: B1 heavy with S398T
light: B1 light
notes: as for B1
Take B4: the dissociation constant Kd in [1] came to 1.3 µM; in experiment [2] it was 14 µM; in [3], 2.5 µM; in experiment [4], 2.3 µM; in experiment [5], 9.2 µM; in [6] it was 7.3 µM. The dissociation constant Kd in [7] is 1 µM; in experiment [8] it was 2.3 µM. Besides, the “KD fold (SG1 = 1)” value in experiment [9] worked out at 1.8 fold.

B5: M103205H795-MY184 / M103202L889-SK1 (antibody, human IgG1, kappa)
heavy: B1 heavy with S398Y
light: B1 light
notes: as for B1
On to B5, for which the Kd was 1.1 µM in experiment [1]; 1.1 µM in experiment [2]; 2 µM in experiment [3]; 2 µM in [4]; 8.4 µM in [5]; 6.8 µM in experiment [6]. The Kd is 0.98 µM in experiment [7] and 1.9 µM in [8]. In [9], the “KD fold (SG1 = 1)” value came to 2 fold.
